Reference: article PMC4431734, “Characterization of a Single-Stranded DNA-Binding-Like Protein from Nanoarchaeum equitans—A Nucleic Acid Binding Protein with Broad Substrate Specificity”

Assays:
NeqSSB-like protein [1] = target: T1, NeqSSB-like protein (Nanoarchaeum equitans Kin4-M, UniProt Q74MP9 2-243); assay: EMSA; 10 pmol DNA; EMSA: 20 mM Tris-HCl pH 7.5, 100 mM NaCl, 1 mM EDTA, 25 C, 10 min; fluorescence: 20 mM Tris-HCl pH 7.5, 1 mM EDTA, 2/100/500 mM NaCl, 25 C; SPR: 10 mM Hepes pH; conditions: protein: recombinant; tags: N-terminal His tag with TEV site, removed by TEV; label: 5' fluorescein
T1 sequence: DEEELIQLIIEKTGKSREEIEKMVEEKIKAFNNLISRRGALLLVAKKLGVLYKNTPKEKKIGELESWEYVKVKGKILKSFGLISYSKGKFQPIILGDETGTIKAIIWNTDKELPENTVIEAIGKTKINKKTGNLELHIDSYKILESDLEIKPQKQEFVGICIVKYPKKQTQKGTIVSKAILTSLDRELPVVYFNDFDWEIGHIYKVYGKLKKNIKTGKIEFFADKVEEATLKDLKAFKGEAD

EcoSSB = EcoSSB (Escherichia coli, UniProt P0AGE0 1-178); assay: SPR; kon 3.45e4 1/Ms; koff 1.85e-4 1/s; EMSA: 20 mM Tris-HCl pH 7.5, 100 mM NaCl, 1 mM EDTA, 25 C, 10 min; fluorescence: 20 mM Tris-HCl pH 7.5, 1 mM EDTA, 2/100/500 mM NaCl, 25 C; SPR: 10 mM Hepes pH; conditions: protein: recombinant; chain copies: 4; label: 3' biotin
EcoSSB, sequence (P0AGE0 whole entry): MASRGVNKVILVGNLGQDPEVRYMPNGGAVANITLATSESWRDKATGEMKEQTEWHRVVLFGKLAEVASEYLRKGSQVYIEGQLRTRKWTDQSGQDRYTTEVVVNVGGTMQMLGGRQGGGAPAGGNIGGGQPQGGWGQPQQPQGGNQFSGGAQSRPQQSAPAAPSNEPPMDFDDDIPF

NeqSSB-like protein [2] = target: T1, NeqSSB-like protein; assay: SPR; kon 7.91e3 1/Ms; koff 2.39e-2 1/s; EMSA: 20 mM Tris-HCl pH 7.5, 100 mM NaCl, 1 mM EDTA, 25 C, 10 min; fluorescence: 20 mM Tris-HCl pH 7.5, 1 mM EDTA, 2/100/500 mM NaCl, 25 C; SPR: 10 mM Hepes pH; conditions: protein: recombinant; tags: N-terminal His tag with TEV site, removed by TEV; label: 3' biotin
NeqSSB-like protein [3] = target: T1, NeqSSB-like protein; assay: SPR; kon 8.30e3 1/Ms; koff 4.89e-2 1/s; EMSA: 20 mM Tris-HCl pH 7.5, 100 mM NaCl, 1 mM EDTA, 25 C, 10 min; fluorescence: 20 mM Tris-HCl pH 7.5, 1 mM EDTA, 2/100/500 mM NaCl, 25 C; SPR: 10 mM Hepes pH; conditions: protein: recombinant; tags: N-terminal His tag with TEV site, removed by TEV; label: 3' biotin on strand 1; blunt
NeqSSB-like protein [4] = target: T1, NeqSSB-like protein; assay: competition EMSA; mixed with 100 bp dsDNA; ssDNA bound preferentially at low protein; EMSA: 20 mM Tris-HCl pH 7.5, 100 mM NaCl, 1 mM EDTA, 25 C, 10 min; fluorescence: 20 mM Tris-HCl pH 7.5, 1 mM EDTA, 2/100/500 mM NaCl, 25 C; SPR: 10 mM Hepes pH; conditions: protein: recombinant; tags: N-terminal His tag with TEV site, removed by TEV; label: 5' fluorescein
NeqSSB-like protein [5] = target: T1, NeqSSB-like protein; assay: EMSA; 10 pmol DNA; smeary shift; EMSA: 20 mM Tris-HCl pH 7.5, 100 mM NaCl, 1 mM EDTA, 25 C, 10 min; fluorescence: 20 mM Tris-HCl pH 7.5, 1 mM EDTA, 2/100/500 mM NaCl, 25 C; SPR: 10 mM Hepes pH; conditions: protein: recombinant; tags: N-terminal His tag with TEV site, removed by TEV; label: 5' fluorescein

B1: (dT)120 (ssDNA)
DNA: TTTTTTTTTTTTTTTTTTTTTTTTTTTTTTTTTTTTTTTTTTTTTTTTTTTTTTTTTTTTTTTTTTTTTTTTTTTTTTTTTTTTTTTTTTTTTTTTTTTTTTTTTTTTTTTTTTTTTTTT
NeqSSB-like protein [1]
  binding result: binds

B2: ssDNA 60-mer (ssDNA)
DNA: AATTCTGGGTGTGTGGGTGTGTGGGTGTGTGGGTGTGGTCAAGTTGACTACGTATACATC
EcoSSB
  Kd: 5.36 nM
NeqSSB-like protein [2]
  Kd: 2660 nM

B3: dsDNA 60-mer (dsDNA)
DNA 1: B2 DNA
DNA 2: GATGTATACGTAGTCAACTTGACCACACCCACACACCCACACACCCACACACCCAGAATT
NeqSSB-like protein [3]
  Kd: 5260 nM

B4: (dT)76 (ssDNA)
DNA: TTTTTTTTTTTTTTTTTTTTTTTTTTTTTTTTTTTTTTTTTTTTTTTTTTTTTTTTTTTTTTTTTTTTTTTTTTTT
NeqSSB-like protein [4]
  binding result: binds

## TTTTTTTTTTTTTTTTTTTTTTTTTTTTTTTTTTT (ssDNA) [(dT)35]
NeqSSB-like protein [5]
  binding result: binds
